Results taken from publication PMC2638020, “Large-Scale Structural Analysis of the Classical Human Protein Tyrosine Phosphatome” (Cell, 2009).

Biological target: the molecule itself
Assay: AUC; sedimentation equilibrium; 0.2, 0.4 and 0.8 mg/ml, 7500 and 10,000 rpm; global fit with a self-association model; dimer to monomers

B1: RPTPγ tandem phosphatase domains (D1-D2), wild type (domain or fragment)
chain: not shown
notes: RPTPγ (PTPRG), human, tandem catalytic domains D1-D2; PDB 2NLK); Vector, tag state and construct limits are in the Supplemental Data; also called PTPRG; RPTPγ D1-D2; source: E. coli BL21(DE3), purified
Kd: 3.5 ± 0.3 µM | stoichiometry N: 2
